Data from patent US20170002083A1 (KYMAB, published 2017).

Columns and labels:
[1] = target: T1, Recombinant Rhesus OX40L (Leader Sequence, FLAG and Isoleucine zipper included) (Rhesus (Macaca mulatta)); experiment: SPR (ProteOn XPR36), rhesus OX40L at 256 nM, apparent affinity; CNROR = Cannot resolve off-rate
T1 construct: also called RhsOX40L; Rhesus monkey OX40L

[2] = target: T2, Recombinant Human OX40L (Leader sequence, Isoleucine Zipper and FLAG Sequence Included) (human); experiment: HTRF ligand/receptor neutralisation, biotinylated hOX40L, competitor OX40RFc-AF647; mean of three experiments, SEM +/-0.04
T2 construct: also called hOX40L; recombinant hOX40L
Experimental: (§1) In order to determine whether recombinantly expressed fully human purified IgG inhibit human OX40L binding to OX40RFc the following method was carried out. Fully human purified IgG or other inhibitor were tested in order to establish the clone potency as measured by IC₅₀ values in the assay. Antibodies recombinantly expressed and purified were titrated by diluting in HTRF assay buffer and 5 μL of this titration transferred to a white 384 well low volume non-binding surface polystyrene plate (Greiner). Biotinylated OX40L was diluted in HTRF assay buffer to a working concentration of 2.4 nM and 5 μL added. OX40RFc directly labelled with AF647 was then diluted to working concentration of 10 nM and 5 μL added. Non-specific binding was defined by replacing OX40RFc-AF647 with assay buffer or HMM. […] Plates were covered, protected from light and incubated at room temperature for 3 hrs prior to reading time resolved fluorescence at 620 nm and 665 nm emission wavelengths using an EnVision plate reader (Perkin Elmer). Data were analysed by calculating delta F as described in Equation 4 and percentage of receptor for each sample according to Equation 5 or in some cases Equation 6. IC₅₀ values were determined using GraphPad Prism software by curve fitting using a four-parameter logistic equation (Equation 7) (FIG. 1).

[3] = target: T2, Recombinant Human OX40L (Leader …); experiment: HTRF ligand/receptor neutralisation: biotinylated hOX40L with OX40RFc-AF647, antibody titrated; readout is % of receptor binding
Experimental: as §1

[4] = target: T1, Recombinant Rhesus OX40L (Leader …); experiment: SPR (ProteOn XPR36), antibody captured, rhesus OX40L at 256 nM, apparent affinity; CNROR = Cannot resolve off-rate
Experimental: (§2) SPR analysis was carried out using the ProteOn™ XPR36 Array System (BioRad). Anti-mouse IgG (GE Healthcare BR-1008-38) was immobilised on a GLM biosensor surface using amine coupling, the surface was then blocked using 1 M ethanolamine. Test antibodies were captured on this surface and recombinant hOX40L (human and rhesus) were used at a single concentration of 256 nM, binding sensorgrams were double referenced using a buffer injection (i.e. 0 nM) to remove baseline drift and injection artefacts. Apparent affinities for the OX40L-antibody interaction were determined using the 1:1 model inherent to the ProteOn XPR36 analysis software. The assay was run using HBS-EP (Teknova) as running buffer and carried out at 25° C.

[5] = target: T2, Recombinant Human OX40L (Leader …); experiment: HTRF ligand/receptor neutralisation, biotinylated hOX40L, competitor OX40RFc-AF647; mean of three experiments, SEM +/-0.17
Experimental: as §1

[6] = target: T2, Recombinant Human OX40L (Leader …); experiment: SPR (ProteOn XPR36), antibody captured on anti-mouse IgG, hOX40L at a single concentration of 256 nM, 1:1 model, apparent affinity, 25 C
Experimental: as §2

T1 sequence (chain, as listed by the source limits assumed): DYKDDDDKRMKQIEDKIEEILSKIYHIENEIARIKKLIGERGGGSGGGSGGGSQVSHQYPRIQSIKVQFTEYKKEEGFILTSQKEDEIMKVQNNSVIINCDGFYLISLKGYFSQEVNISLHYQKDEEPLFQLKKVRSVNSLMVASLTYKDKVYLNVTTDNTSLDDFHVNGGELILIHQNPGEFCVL
T2 sequence (chain, as listed by the source limits assumed): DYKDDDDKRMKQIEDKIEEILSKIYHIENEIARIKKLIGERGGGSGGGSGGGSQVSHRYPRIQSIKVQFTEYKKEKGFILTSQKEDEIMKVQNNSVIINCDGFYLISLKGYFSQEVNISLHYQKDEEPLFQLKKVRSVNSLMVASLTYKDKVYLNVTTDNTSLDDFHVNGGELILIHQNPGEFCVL

Row | binding result [1] | IC50 (read off the curve) [3] [nM] | binding result [4] | Kd [6] [nM] | Binder | further results
1 | binds | ~0.8 | – | – | 2D10 (human) (antibody, human IgG4 S228P, kappa, V domains shown, also called 02D10; 02D10 IgG4-PE) VH: EVQLVESGGGLVQPGGSLRLSCAASGFTFSNYAMNWVRQAPGKGLEWVSTISGSGGATRYADSVKGRFTISRDNSRNTVYLQMNSLRVEDTAVFYCTKDRLIMATVRGPYYYGMDVWGQGTTVTVSS VL: DIQMTQSPSSLSASVGDRVTITCRASQSISSYLNWYQQKPGKAPNLLIYAASSLQSGVPSRFSGSGSETDFTLTISSLQPEDFATYYCQQSHSVSFTFGPGTKVDIKR | IC50 [2]: 0.75 nM
2 | – | – | binds | – | 2D10 (hybridoma) (antibody, V domains shown, Kappa light chain; also called 02D10) VH: EVQLVESGGGLVQPGGSLRLSCAASGFTFSNYAMNWVRQAPGKGLEWVSTISGSGGATRYADSVKGRFTISRDNSRNTVYLQMNSLRVEDTAVFYCTKDRLIMATVRGPYYYGMDVWGQGTTVTVSS VL: DIQMTQSPSSLSASVGDRVTITCRASQSISSYLNWYQQKPGKAPNLLIYAASSLQSGVPSRFSGSGSETDFTLTISSLQPEDFATYYCQQSHSVSFTFGPGTKVDIK | –
3 | binds | ~1 | – | – | 10A07 (human) (antibody, human IgG4 S228P, kappa, V domains shown, also called 10A7; 10A07 IgG4PE) VH: EVQLVESGGVLVQPGGSLRLSCAASGFTFSSYIMTWVRQAPGKGLEWVSGISGSGGGTYYADSMKGRFTISRDNSKNTLYLQMNSLRVEDTAVYYCAKDRLGPITLVRGGYYYGMDVWGQGTTVTVSS VL: DIQMTQSPSSLSASVGDRVTITCRASQSISDYLNWYQQKPGKAPKFLIYAASSLQSGVPSRFSGSGSGTDFTLTVSSLQPEDFATYYCQQSYSTPRTFGQGTRVEIKR | IC50 [5]: 1.2 nM
4 | – | – | binds | – | 10A07 (hybridoma) (antibody, V domains shown, Kappa light chain; also called 10A7; mAb 10A7) VH: EVQLVESGGVLVQPGGSLRLSCAASGFTFSSYIMTWVRQAPGKGLEWVSGISGSGGGTYYADSMKGRFTISRDNSKNTLYLQMNSLRVEDTAVYYCAKDRLGPITLVRGGYYYGMDVWGQGTTVTVSS VL: DIQMTQSPSSLSASVGDRVTITCRASQSISDYLNWYQQKPGKAPKFLIYAASSLQSGVPSRFSGSGSGTDFTLTVSSLQPEDFATYYCQQSYSTPRTFGQGTRVEIK | –
5 | – | – | – | 5.3 | 9H04 (hybridoma) (antibody, V domains shown, also called 09H04) VH: QVQLVESGGGLVKPGGSLRLSCAASRFTLSDYYMTWIRQAPGKGLEWVSYISSSGNTIYYADSVKGRFTISRDNAKNSLYLQMNSLRAEDTAVYYCARDLSGSYWDYYYGMDVWGQGTTVTVSS VL: AIQLTQSPSSLSTSVGDRVTIACRASQGINNALAWYQQKPGKAPKLLIYDASSLESGVPSRFSGSGSGTDFTLTISSLQPEDFATYYCQQFNSYPRTFGQGTKVEIK | –
6 | – | – | – | 2.2 | 19H01 (hybridoma) (antibody, V domains shown) VH: not shown VL: DIQMTQSPSSLSASVGDRVTITCRASQGISNYLAWYQQKPGKIPKLLIYAASTLQSGVPSRFSGSGSGTDFTLTISSLQPEDVATYYCQKYNSAPRTFGQGTKVEIK | –
